Laboratory results published in publication PMC6133388.

Target: GST-tagged NbSAMS2 (GST-NbSAMS2) (N. benthamiana)

Substance: GST-C4 (natural protein)
- NbSAMS2 enzymatic activity in vitro (conversion of 35S-Met to 35S-SAM, TLC) after pre-incubation with varying amounts of GST-C4; reduction of activity at an 8:1 molar ratio of C4:NbSAMS2: 80%
